This is an account of results in patent US9605283B2, “Microorganism modified for the production of 1,3-propanediol” (INSTITUT NATIONAL DES SCIENCES APPLIQUÉES, priority 2012, dated 2017).

Substrate in data set [1]: CC(=O)C(=O)O
Kind of data set: OHB decarboxylase / pyruvate decarboxylase kinetics, Zm-Pdc wild type. The conditions noted are these: other: 37° C., pH 7, coupled to yeast alcohol dehydrogenase/NADH. It is filed as biochemical, Zymomonas mobilis. An excerpt: (§1) Genomic DNAs of S. cerevisiae BY4741, and Z. mobilis (Lindner) Kluyver and van Niel (ATCC® 31821) were used as the template. […] Ligation products were transformed into competent E. coli DH5α cells (NEB). […] The corresponding protein sequences are represented by SEQ No. 208 and SEQ ID No. 208 128 respectively.
(§2) The plasmids were used to transform E. coli BL21 (DE3) star cells and the enzymes carrying an N-terminal hexa-His tag were expressed and purified as described in Example 1. Decarboxylase activity on 2-oxo-4-hydroxybutyrate (OHB), pyruvate (Sigma), and 4-methyl-2-oxovaleric acid (Sigma) was quantified.
(§3) OHB decarboxylase activity was assayed by coupling the decarboxylase activity to the NADPH-dependent reduction of the released 3-hydroxypropanal by purified aldehyde reductase, YqhD, from E. coli. The decarboxylation of pyruvate was coupled to the NADH-dependent reduction of acetaldehyde catalysed by yeast alcohol dehydrogenase. Branched-chain alpha-ketoacid decarboxylase activity was measured on 4-methyl-2-oxovaleric acid by coupling to the NADH-dependent reduction of 3-methylbutanal catalysed by horse liver alcohol dehydrogenase. […] Reactions were started by adding 20 mM 2-oxo-4-hydroxybutyrate (OHB), 10 mM 4-methyl-2-oxovaleric acid (MOV), or 5 mM pyruvate.

Substrate in data set [2]: O=C(O)C(=O)CCO
Described as above. It is filed as biochemical, Zymomonas mobilis. The note with it: other: 37° C., pH 7, coupled to E. coli YqhD/NADPH.
Source text: as §1, §2, §3

Substrate in data set [3]: O=C(O)C[C@H](O)C(=O)O
Kind of data set: purified protein, by the assay type. The conditions noted are these: other: 37° C., pH 8, NAD.

Substrate in data set [4]: O=C(O)C[C@H](O)C(=O)O
Kind of data set: cells, lysate or membranes named. The note with it: other: 37° C., pH 8, NAD.

Substrate in data set [5]: O=C(O)[C@@H](O)CCO
Kind of data set: cells, lysate or membranes named. The note with it: other: 37° C., pH 8, 10 mM NAD. It is filed as biochemical, Escherichia coli.

Substrate in data set [6]: O=C(O)C[C@H](O)C(=O)O
Kind of data set: purified protein, by the assay type. It is filed as biochemical, Bacillus subtilis strain 168. The note with it: other: 37° C., pH 8, NAD. An excerpt:
(§4) Ligation products were transformed into E. coli DH5α cells.

Substrate in data set [7]: O=C(O)C[C@H](O)C(=O)O
Kind of data set: cells, lysate or membranes named. It is filed as biochemical, Bacillus subtilis. The note with it: other: 37° C., pH 8, NAD. Here is the method:
(§5) Site-directed mutagenesis of the E. coli mdh and the B. subtilis mdh genes were carried out using the oligonucleotide pairs listed in Table 3 and the pET28-Ec-mdh and the pET28-Bs-mdh plasmids as the templates. Point mutations to change the amino acid sequence were introduced by PCR (Phusion 1U, HF buffer 20% (v/v), dNTPs 0.2 mM, direct and reverse primers 0.04 μM each, template plasmid 50 ng, water) using the oligonucleotide pairs listed in Table 3. Mutated genes contained a new restriction site listed in Table 3 (introduced using silent mutations) in addition to the functional mutation to facilitate identification of mutated clones. The PCR products were digested by DpnI at 37° C. for 1 h to remove template DNA, and transformed into competent E. coli DH5-alpha cells (NEB). The mutated plasmids were identified by restriction site analysis and verified to carry the desired mutations by DNA sequencing.
(§6) Mutant enzymes were expressed, purified and tested for DHB dehydrogenase activity as described in Example 1.

Substrate in data set [8]: O=C(O)[C@@H](O)CCO
Kind of data set: cells, lysate or membranes named. The note with it: other: 37° C., pH 8, 10 mM NAD. It is filed as biochemical, Bacillus subtilis. The protocol:
as §5, §6

Substrate in data set [9]: C[C@H](O)C(=O)O
Kind of data set: purified protein, by the assay type. The note with it: other: 37° C., pH 8, NAD, optionally 5 mM fructose-1,6-bisphosphate.

Substrate in data set [10]: C[C@H](O)C(=O)O
Kind of data set: purified protein, by the assay type. It is filed as biochemical, Escherichia coli MG1655. The conditions noted are these: other: 37° C., pH 7, DCIP reduction. The protocol: as §4
(§7) Activity of the membrane-associated DHB dehydrogenase (Ec-LldD) was assayed by following the DHB-dependent reduction of 2,6-dichloroindophenol (DCIP). (L)-2,4-dihydroxybutyrate+DCIPox→2-oxo-4-hydroxybutyrate+DCIPred Reaction scheme 2:
(§8) Reactions were started by adding 20 mM (L)-2,4-dihydroxybutyrate (Rhodia).

Substrate in data set [11]: O=C(O)[C@@H](O)CCO
Kind of data set: purified protein, by the assay type. It is filed as biochemical, Escherichia coli MG1655. The note with it: other: 37° C., pH 7, 0.06 mM DCIP. The protocol:
as §4, §7, §8

Substrate in data set [12]: C[C@H](O)C(=O)O
Kind of data set: purified protein, by the assay type. It is filed as biochemical, Escherichia coli. The conditions noted are these: other: 37° C., pH 7, DCIP reduction. The protocol:
as §7, §8
(§9) Site-directed mutagenesis of the E. coli lldD gene was carried out using the oligonucleotide pairs listed in Table 5 and the pET28-Ec-lldD plasmid as the template.

Substrate in data set [13]: O=C(O)[C@@H](O)CCO
Kind of data set: purified protein, by the assay type. It is filed as biochemical, Escherichia coli. The note with it: other: 37° C., pH 7, 0.06 mM DCIP. The protocol: as §7, §8, §9

Numbering of substitutions follows the chain as printed. Names and notes keep the numbering of the source.

B1: Zymomonas mobilis pyruvate decarboxylase Zm-Pdc, wild type, SEQ ID No. 128 (Zymomonas mobilis subsp. mobilis ZM4 = ATCC 31821) (protein)
chain: MSYTVGTYLAERLVQIGLKHHFAVAGDYNLVLLDNLLLNKNMEQVYCCNELNCGFSAEGYARAKGAAAAVVTYSVGALSAFDAIGGAYAENLPVILISGAPNNNDHAAGHVLHHALGKTDYHYQLEMAKNITAAAEAIYTPEEAPAKIDHVIKTALREKKPVYLEIACNIASMPCAAPGPASALFNDEASDEASLNAAVEETLKFIANRDKVAVLVGSKLRAAGAEEAAVKFADALGGAVATMAAAKSFFPEENPHYIGTSWGEVSYPGVEKTMKEADAVIALAPVFNDYSTTGWTDIPDPKKLVLAEPRSVVVNGIRFPSVHLKDYLTRLAQKVSKKTGALDFFKSLNAGELKKAAPADPSAPLVNAEIARQVEALLTPNTTVIAETGDSWFNAQRMKLPNGARVEYEMQWGHIGWSVPAAFGYAVGAPERRNILMVGDGSFQLTAQEVAQMVRLKLPVIIFLINNYGYTIEVMIHDGPYNNIKNWDYAGLMEVFNGNGGYDSGAGKGLKAKTGGELAEAIKVALANTDGPTLIECFIGREDCTEELVKWGKRVAAANSRKPVNKLL
notes: hexa-His (N); made in house; host or cells: E. coli BL21 (DE3) star
For the protein B1, the Km (commonly the substrate concentration at which the rate is half of its maximum) is given as 2.5 mM in data set [1] and 1.5 mM in data set [2].

B2: Escherichia coli (L)-malate dehydrogenase Ec-Mdh, wild type, SEQ ID No. 124 (Escherichia coli K-12) (protein)
chain: MKVAVLGAAGGIGQALALLLKTQLPSGSELSLYDIAPVTPGVAVDLSHIPTAVKIKGFSGEDATPALEGADVVLISAGVARKPGMDRSDLFNVNAGIVKNLVQQVAKTCPKACIGIITNPVNTTVAIAAEVLKKAGVYDKNKLFGVTTLDIIRSNTFVAELKGKQPGEVEVPVIGGHSGVTILPLLSQVPGVSFTEQEVADLTKRIQNAGTEVVEAKAGGGSATLSMGQAAARFGLSLVRALQGEQGVVECAYVEGDGQYARFFSQPLLLGKNGVEERKSIGTLSAFEQNALEGMLDTLKKDIALGEEFVNK
B2: in data set [3], the Michaelis-Menten constant (Km) is 0.56 mM.

B3: Escherichia coli malate dehydrogenase Ec-Mdh variant R81A M85Q I12V, SEQ ID No. 164 (Escherichia coli K-12; I12V/M85Q/R81A) (protein)
chain: B2 chain with I12V, R81A, M85Q
For B3, the values for the Km in data set [4] and in data set [5] were 12.5 mM and 19 mM, respectively.

B4: Escherichia coli malate dehydrogenase Ec-Mdh variant R81A, SEQ ID No. 156 (Escherichia coli K-12; R81A) (protein)
chain: B2 chain with R81A
Regarding B4, the Km in [4] is recorded as 0.7 mM; in data set [5], 33 mM.

B5: Escherichia coli malate dehydrogenase Ec-Mdh variant R81A I12V, SEQ ID No. 162 (Escherichia coli K-12; I12V/R81A) (protein)
chain: B2 chain with I12V, R81A
As to B5, the Km in [4] turned out to be 8.5 mM.

B6: Escherichia coli malate dehydrogenase Ec-Mdh variant R81A M85Q, SEQ ID No. 158 (Escherichia coli K-12; M85Q/R81A) (protein)
chain: B2 chain with R81A, M85Q
On to B6, for which the Michaelis-Menten constant (Km) in data set [4] is recorded as 2.2 mM; in data set [5], 29 mM.

B7: Escherichia coli malate dehydrogenase Ec-Mdh variant R81A D86S, SEQ ID No. 170 (Escherichia coli K-12; D86S/R81A) (protein)
chain: B2 chain with R81A, D86S
As for B7, the Michaelis constant (Km) amounted to 10.3 mM in data set [4] and 28 mM in data set [5].

B8: Escherichia coli malate dehydrogenase Ec-Mdh variant R81A M85E I12V, SEQ ID No. 166 (Escherichia coli K-12; I12V/M85E/R81A) (protein)
chain: B2 chain with I12V, R81A, M85E
As to B8, the Michaelis constant (Km) in [4] amounted to 11.2 mM; in [5], 20 mM.

B9: Escherichia coli malate dehydrogenase Ec-Mdh variant R81A M85E, SEQ ID No. 160 (Escherichia coli K-12; M85E/R81A) (protein)
chain: B2 chain with R81A, M85E
On to B9, for which the Km in data set [4] was determined as 8.6 mM; in data set [5], 48 mM.

B10: Bacillus subtilis (L)-malate dehydrogenase Bs-Mdh, wild type, SEQ ID No. 126 (Bacillus subtilis subsp. subtilis str. 168) (protein)
chain: MGNTRKKVSVIGAGFTGATTAFLIAQKELADVVLVDIPQLENPTKGKALDMLEASPVQGFDAKITGTSNYEDTAGSDIVVITAGIARKPGMSRDDLVSTNEKIMRSVTQEIVKYSPDSIIVVLTNPVDAMTYAVYKESGFPKERVIGQSGVLDTARFRTFVAEELNLSVKDVTGFVLGGHGDDMVPLVRYSYAGGIPLETLIPKERIDAIVERTRKGGGEIVNLLGNGSAYYAPAASLTEMVEAILKDQRRVLPTIAYLEGEYGYEGIYLGVPTIVGGNGLEQIIELELTDYERAQLNKSVESVKNVMKVLS
notes: as for B1
On to B10, for which the Michaelis constant (Km) in data set [6] was 2.6 mM.

B11: Bacillus subtilis malate dehydrogenase Bs-Mdh variant R87C, SEQ ID No. 154 (Bacillus subtilis subsp. subtilis str. 168; R87C) (protein)
chain: B10 chain with R87C
Take B11: the Km in [7] is recorded as 6.8 mM; in [8], 5.4 mM.

B12: Lactococcus lactis (L)-lactate dehydrogenase Ll-LdhA, wild type, SEQ ID No. 120 (Lactococcus lactis subsp. lactis Il1403) (protein)
chain: MADKQRKKVILVGDGAVGSSYAFALVNQGIAQELGIVDLFKEKTQGDAEDLSHALAFTSPKKIYSADYSDASDADLVVLTSGAPQKPGETRLDLVEKNLRITKDVVTKIVASGFKGIFLVAANPVDILTYATWKFSGFPKNRVVGSGTSLDTARFRQALAEKVDVDARSIHAYIMGEHGDSEFAVWSHANVAGVKLEQWFQENDYLNEAEIVELFESVRDAAYSIIAKKGATFYGVAVALARITKAILDDEHAVLPVSVFQDGQYGVSDCYLGQPAVVGAEGVVNPIHIPLNDAEMQKMEASGAQLKAIIDEAFAKEEFASAVKN
As for B12, the Michaelis-Menten constant (Km) in data set [9] was 21.2 mM.

B13: Escherichia coli membrane associated (L)-lactate dehydrogenase Ec-LldD, wild type, SEQ ID No. 122 (Escherichia coli K-12) (protein)
chain: MIISAASDYRAAAQRILPPFLFHYMDGGAYSEYTLRRNVEDLSEVALRQRILKNMSDLSLETTLFNEKLSMPVALAPVGLCGMYARRGEVQAAKAADAHGIPFTLSTVSVCPIEEVAPAIKRPMWFQLYVLRDRGFMRNALERAKAAGCSTLVFTVDMPTPGARYRDAHSGMSGPNAAMRRYLQAVTHPQWAWDVGLNGRPHDLGNISAYLGKPTGLEDYIGWLGNNFDPSISWKDLEWIRDFWDGPMVIKGILDPEDARDAVRFGADGIVVSNHGGRQLDGVLSSARALPAIADAVKGDIAILADSGIRNGLDVVRMIALGADTVLLGRAFLYALATAGQAGVANLLNLIEKEMKVAMTLTGAKSISEITQDSLVQGLGKELPAALAPMAKGNAA
notes: as for B1
Take B13: the Michaelis constant (Km) is 0.13 mM in data set [10] and 1.31 mM in data set [11].

B14: Escherichia coli (L)-lactate dehydrogenase Ec-LldD variant V108C, SEQ ID No. 174 (Escherichia coli K-12; V108C) (protein)
chain: B13 chain with V108C
notes: DCIP assay
Regarding B14, the Km in data set [12] worked out at 0.42 mM; in data set [13], 0.85 mM.
